According to US20210341448A1, “SCREENING METHOD FOR THERAPEUTIC DRUG OR PROPHYLACTIC DRUG FOR TAUOPATHY AND DIAGNOSTIC METHOD FOR TAUOPATHY” (National Center for Geriatrics and Gerontology, priority 2018, published 2021):

Target: T1, NMDAR (Homo sapiens, UniProt Q05586)
T1 construct: endogenous in cells; host or cells: NT2-N neurons differentiated from NTERA-2 cl.D1 [NT2/D1] cells (ATCC CRL-1973)
Assay: Measurement of calcium influx through NMDAR into NT2-N cells
Type: cell-based
Protocol: Cultured neurons expressing NMDARs retaining physiological functions were prepared by the following procedure to evaluate the NMDAR activation ability of the tau oligomer. The NTERA-2 cl.D1[NT2/D1] cells (ATCC CRL-1973) (hereinafter described as “NT2 cell”), which are derived from a human pluripotent embryonic cancer, were adhesively cultured on 10-cm plastic dish in maintenance culture medium (high glucose DMEM (Sigma-Aldrich, D6429), 10% FBS, 100 U/ml penicillin/streptomycin) under the conditions of 37° C. and 5% CO2 for 3 to 4 days until the confluency stage was attained. The NT2 cells were detached using Accutase (Innovative Cell Technologies, #AT104), were passaged, and were maintained over a period of 50 days. The medium was replaced 3 times a week.
The maintenance-cultured NT2 cells were dispersed in a low attachment petri dish (STAR SDish9015, RIKAKEN CO., LTD.) in a concentration of 1.5×10^6 to 2.5×10^6/dish, suspension-cultured under the conditions of 37° C. and 5% CO2 on a shaker (100 rpm), and 1 day later were induced to differentiate by adding 1 μM of all-trans-retinoic acid (abcam), to thereby form spheroids. 14 days later, the spheroids were collected, seeded in a 10-cm dish coated with 5 μg/ml of poly-D-lysin (PDL) (Sigma-Aldrich)/Laminin (LAM) (iMatrix-511, Nippi Inc.) and adhesively cultured under the conditions of 37° C. and 5% CO2. From the following day, the culture was carried out by adding 3 kinds of cell division inhibitors (10 μM of uridine, 10 μM of floxuridine, and 1 μM of AraC). […]
For analysis, 5 to 10 regions of the visual field of the NT2-N cells positioned in the system were manually set and the fluorescence intensities were recorded for each region, for Cal-520, every 1 minute for 1 hour continuously at excitation wavelength 480 nm/fluorescence emission wavelength 520 nm, and for Fluo-8, every 2 seconds for 5 minutes continuously at excitation wavelength 480 nm/fluorescence emission wavelength 520 nm. […]

increase of intracellular calcium concentration (NMDAR activation ability) (Cal-520, NT2-N cells, 3 minutes after administration): has the NMDAR activation ability | intracellular calcium concentration (Fluo-8, NT2-N cells, 100 μl of 0.03 μg/ml in HHBS): increased over time
Substance: tau oligomer: polymer of human tau 2N4R monomers, polymerized with mouse brain extract and ATP, collected as pellets
